Results reported in patent publication US20220048967A1 (published 2022).
Numbered stars: 1 amine (or outer) side, 2 acyl side, 3 side chain; on linkers, the order of the positions; unused ones are H or OH. Square brackets hold non-standard residues; d marks the D form. Side chains are listed from the residue outwards. Ends that are not written are not given here. * marks the point of attachment. C20 diacid = O=C(O)CCCCCCCCCCCCCCCCCCC(=O)*; γGlu = O=C(O)[C@H](CCC(=O)[*:2])N[*:1]; AEEA = NCCOCCOCC(=O)O; Aib = CC(C)(N)C(=O)O

Columns and labels:
human GLP-1 receptor = human GLP-1 receptor (human, UniProt P43220 24-463); test: cell-based or functional assay
human GIP receptor = target: T1, human GIP receptor (human, UniProt P48546 22-466); test: cell-based or functional assay
T1 sequence (looked up): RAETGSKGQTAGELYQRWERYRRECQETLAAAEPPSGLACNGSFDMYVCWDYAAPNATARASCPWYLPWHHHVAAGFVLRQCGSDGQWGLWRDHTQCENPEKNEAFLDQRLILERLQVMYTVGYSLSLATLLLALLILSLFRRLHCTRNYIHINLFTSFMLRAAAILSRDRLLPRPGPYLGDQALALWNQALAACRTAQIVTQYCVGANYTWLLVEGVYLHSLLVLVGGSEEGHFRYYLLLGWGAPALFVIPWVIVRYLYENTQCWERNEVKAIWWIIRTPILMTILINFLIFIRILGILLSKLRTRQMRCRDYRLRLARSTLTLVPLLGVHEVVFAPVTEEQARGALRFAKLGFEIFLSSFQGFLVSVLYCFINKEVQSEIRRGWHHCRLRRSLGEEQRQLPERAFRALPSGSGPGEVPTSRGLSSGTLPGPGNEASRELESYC

B1: Example 10 (peptide)
peptide: Y[Aib]EGTFTSDYSILLDSIAQ[Aib]AFIK([AEEA-AEEA-γGlu-C20 diacid])YLLA[Aib]GPSSGAPPPS-NH2
modifications: N-terminus assumed
SMILES: CC[C@H](C)[C@H](NC(=O)[C@H](CO)NC(=O)[C@H](CC(=O)O)NC(=O)[C@H](CC(C)C)NC(=O)[C@H](CC(C)C)NC(=O)[C@@H](NC(=O)[C@H](CO)NC(=O)[C@H](Cc1ccc(O)cc1)NC(=O)[C@H](CC(=O)O)NC(=O)[C@H](CO)NC(=O)[C@@H](NC(=O)[C@H](Cc1ccccc1)NC(=O)[C@@H](NC(=O)CNC(=O)[C@H](CCC(=O)O)NC(=O)C(C)(C)NC(=O)[C@@H](N)Cc1ccc(O)cc1)[C@@H](C)O)[C@@H](C)O)[C@@H](C)CC)C(=O)N[C@@H](C)C(=O)N[C@@H](CCC(N)=O)C(=O)NC(C)(C)C(=O)N[C@@H](C)C(=O)N[C@@H](Cc1ccccc1)C(=O)N[C@H](C(=O)N[C@@H](CCCCNC(=O)COCCOCCNC(=O)COCCOCCNC(=O)CC[C@H](NC(=O)CCCCCCCCCCCCCCCCCCC(=O)O)C(=O)O)C(=O)N[C@@H](Cc1ccc(O)cc1)C(=O)N[C@@H](CC(C)C)C(=O)N[C@@H](CC(C)C)C(=O)N[C@@H](C)C(=O)NC(C)(C)C(=O)NCC(=O)N1CCC[C@H]1C(=O)N[C@@H](CO)C(=O)N[C@@H](CO)C(=O)NCC(=O)N[C@@H](C)C(=O)N1CCC[C@H]1C(=O)N1CCC[C@H]1C(=O)N1CCC[C@H]1C(=O)N[C@@H](CO)C(N)=O)[C@@H](C)CC
Q: How did the “hGLP1R cAMP EC50 ratio” value (human GLP-1 receptor) turn out when B1 was run?
A: Its value is 0.00912.

Q: What about the “hGLP1R cAMP Rel EC50” value (human GLP-1 receptor) of the same binder?
A: Its value is 7.64 nM.

Q: What about the “hGIPR cAMP EC50 ratio” value (human GIP receptor) of the same binder?
A: The value was 0.151.

Q: What about the “hGIPR cAMP Rel EC50” value (human GIP receptor) of the same binder?
A: The value was 1.28 nM.

B2: Example 11 (peptide)
peptide: Y[Aib]EGTFTSDYSILLDSIAQ[Aib]AFIEYLLK([AEEA-AEEA-γGlu-C20 diacid])[Aib]GPSSGAPPPS-NH2
modifications: N-terminus assumed
SMILES: CC[C@H](C)[C@H](NC(=O)[C@H](CO)NC(=O)[C@H](CC(=O)O)NC(=O)[C@H](CC(C)C)NC(=O)[C@H](CC(C)C)NC(=O)[C@@H](NC(=O)[C@H](CO)NC(=O)[C@H](Cc1ccc(O)cc1)NC(=O)[C@H](CC(=O)O)NC(=O)[C@H](CO)NC(=O)[C@@H](NC(=O)[C@H](Cc1ccccc1)NC(=O)[C@@H](NC(=O)CNC(=O)[C@H](CCC(=O)O)NC(=O)C(C)(C)NC(=O)[C@@H](N)Cc1ccc(O)cc1)[C@@H](C)O)[C@@H](C)O)[C@@H](C)CC)C(=O)N[C@@H](C)C(=O)N[C@@H](CCC(N)=O)C(=O)NC(C)(C)C(=O)N[C@@H](C)C(=O)N[C@@H](Cc1ccccc1)C(=O)N[C@H](C(=O)N[C@@H](CCC(=O)O)C(=O)N[C@@H](Cc1ccc(O)cc1)C(=O)N[C@@H](CC(C)C)C(=O)N[C@@H](CC(C)C)C(=O)N[C@@H](CCCCNC(=O)COCCOCCNC(=O)COCCOCCNC(=O)CC[C@H](NC(=O)CCCCCCCCCCCCCCCCCCC(=O)O)C(=O)O)C(=O)NC(C)(C)C(=O)NCC(=O)N1CCC[C@H]1C(=O)N[C@@H](CO)C(=O)N[C@@H](CO)C(=O)NCC(=O)N[C@@H](C)C(=O)N1CCC[C@H]1C(=O)N1CCC[C@H]1C(=O)N1CCC[C@H]1C(=O)N[C@@H](CO)C(N)=O)[C@@H](C)CC
Q: Which results are given for B2?
A: hGLP1R cAMP EC50 ratio (human GLP-1 receptor): 0.0111; hGLP1R cAMP Rel EC50 (human GLP-1 receptor): 6.89 nM; hGIPR cAMP EC50 ratio (human GIP receptor): 0.399; hGIPR cAMP Rel EC50 (human GIP receptor): 0.486 nM
